Data from patent US7704951B2, “Method for ameliorating dyskinesia” (Juridical Foundation the Chemo-Sero-Therapeutic Research …, priority 2001, dated 2010).
Entries after “also recorded” stand apart in the source; their conditions may differ. Where no end group is shown, it is not given here. [ ]: non-standard residue; d: D form. Sec = N[C@@H](C[SeH])C(=O)O

How the values were obtained:
Dami cells = assay: Cytotoxicity-inhibitory (cell death-inhibitory) activity assay using Dami cells; format: cell-based; details: for cytotoxicity-inhibitory activity: Dami cells, fatty acid-containing assay medium, 4 to 5 days, survival of the cells
Method: Using Dami cells (described in Greenberg S. M. et al., Blood, vol. 72, p. 1968-1977 (1988)) for use in assay system for cytotoxicity-inhibitory activity, the cells were washed twice with assay medium (50% PBS/SA/0.03% HSA (manufactured by SIGMA) or SA/0.05% BSA free from fatty acid (WAKO)/4 μM long-chain polyvalent fatty acid (e.g. arachidonic acid, linoleic acid or linolenic acid)) and suspended in the same medium at 3×10^4 cells/ml. The cell suspension was added to a 96-well plate in each 200 μl for wells for sample addition or in each 100 μl for wells for serial dilution. To the wells for sample addition was added each 2 μl assay sample containing either selenoprotein P fragment prepared in Preparation 1, selenocystine, selenomethionine, Ebselen, or sodium selenite at the same concentration. After stirring, a serial dilution was made with the wells containing 100 μl cell suspension. The plate was incubated at 37° C. in CO2 incubator for 4 to 5 days followed by assessment of survival of the cells.

[1] = cited from earlier work
gerbil mice = assay: Cerebral ischemia/reperfusion injury model (blocking both carotid arteries), degree of paralysis; format: in vivo; details: 1 mg/animal i.v., vs control
Method: Effect of selenoprotein P on dyskinesia induced by cerebral ischemia/reperfusion injury was assessed with a degree of paralysis using gerbil mice of 12 weeks old. […] […] A degree of paralysis was assessed after 6 and 24 hours.

EAE mice (SJL/JOrIICrj) = assay: Experimental allergic encephalomyelitis (EAE) in mice, degree of paralysis; format: in vivo, mouse; details: 0.5 mg/head daily i.p. Day 8 to Day 13
Method: For investigating the effect of selenoprotein P on dyskinesia induced by immunopathy based on a degree of paralysis, an experiment was performed wherein selenoprotein P was administered to EAE mice. Female SJL/JOrIICrj of 14 weeks old (Charles River Japan, Inc.) was used as a test animal. Myelin proteolipid protein (PLP) synthetic peptide 139-151 (amino acid sequence: His Ser Leu Gly Lys Trp Leu Gly His Pro Asp Lys Phe (SEQ ID NO: 6); […]) as an immunogen was intradermally administered to the mice together with Freund complete adjuvant H37Ra ([…]) and pertussis toxin (manufactured by List Biological Laboratory; 200 ng/mouse) at two portions at the neck of tail.
Thirteen mice each in two groups received daily 0.5 mg/head of selenoprotein P via intraperitoneal administration from the day (Day 8) previous to onset of the disease till Day 13. A control group received saline via intraperitoneal administration.

hNT cells = assay: Survival and protrusion formation in cultured human neurocytes; format: cell-based
Method: NT2 (Ntera2/D1) (Pleasure, S. J. and Lee, V. M., 1993, J. Neurosci. Res. 35: 585-602) is a progenitor neurocyte derived from human teratocarcinoma and can be differentiated with retinoic acid into hNT neurocytes having the properties of the nerve in the central nervous system (Trojanowski, J. Q. et al., 1993 Exp. Neurol. 122: 283-294). Effect of selenoprotein P on protrusion formation in the hNT cells was investigated.
Both NT2 and hNT cells can be cultured in CO2 incubator at 37° C. The hNT cells were prepared as follows: NT2 cells, being capable of passage culture in 10% FCS/D-MEM/F-12 medium, were first plated at 2.5×10^5 cells/ml. After 24 hours, the culture medium was replaced with D-MEM/F-12 containing 10 μM all-trans retinoic acid to initiate induction. The culture was subsequently continued for six weeks while replacing with the same medium every three days to differentiate NT2 cells into hNT cells. All the differentiated cells were recovered and expanded by 3-folds by passage culture with 10% FCS/D-MEM/F-12 medium. After 48 hours, the cells were plated at 3 to 4×10^6 cells/ml. After 48-hour culture, the culture medium was replaced with 5% FCS/D-MEM/F-12 plus mitotic inhibitor (10 μM Fluorodeoxyuridine, Uridine, 1 μM cytosine arabinoside) and culture was continued for ten days while replacing with the same medium every three days. Subsequently, the culture was treated with trypsin for a short time period and then lightly tapped to release the hNT cells which were recovered. The recovered cells were suspended in a mixed medium of an equal amount of NT2 culture supernatant (10% FCS/D-MEM/F-12 medium) and a fresh 10% FCS/D-MEM/F-12 medium. The suspension was plated on Laminin coating plate to maintain the cells. The hNT cells thus obtained were used in the following experiment.
The hNT cells were recovered by trypsin treatment, washed with a basal medium of RPMI 1640/D-MEM/F-12 (1:2:2), suspended in the same basal medium and cultured in 96-well plate at 3000 cells/well. On Day 5 to Day 7, the cells died completely.

[2] = Toxicity of selenium compounds (cell culture); details: in spite of 9 to 10 selenocysteines
Source text: Selenium per se, as involved in the present invention, is one of essential trace elements and it is known that deficiency thereof induces a serious deficiency disease accompanied by, for instance, cardiomyopathy. […] Acute toxic symptoms of selenium include, for example, pale face, neurological symptoms, dermatitis, and gastrointestinal disorders.

KRCINQLLCKLPTDSELAPRS (cysteine pairing not given here) [SEQ ID NO: 5, selenoprotein P-derived peptide with no selenocysteine, reference compound]
cytotoxicity-inhibitory activity (Dami cells): exhibit no cytotoxicity-inhibitory activity

N[C@@H](C[Se][Se]C[C@H](N)C(=O)O)C(=O)O [selenocystine]
toxicity when added alone to cell culture [1]: fairly strong toxicity

Lys Arg Cys Ile Asn Gln Leu Leu Cys Lys Leu Pro Thr Asp Ser Glu Leu Ala Pro Arg Ser Xaa Cys Cys His Cys Arg His Leu Ile Phe Glu Lys (KRCINQLLCKLPTDSELAPRS[Sec]CCHCRHLIFEK; cysteine pairing not given here; listed as Homo sapiens) [SEQ ID NO: 4, peptide purified from selenoprotein P fragments under reduced condition; Xaa = selenocysteine]
cytotoxicity-inhibitory activity (Dami cells): exhibit cytotoxicity-inhibitory activity

B1: selenoprotein P (protein, UniProt P49908 20-381, looked up)
Selenoprotein P: ESQDQSSLCKQPPAWSIRDQDPMLNSNGSVTVVALLQASUYLCILQASKLEDLRVKLKKEGYSNISYIVVNHQGISSRLKYTHLKNKVSEHIPVYQQEENQTDVWTLLNGSKDDFLIYDRCGRLVYHLGLPFSFLTFPYVEEAIKIAYCEKKCGNCSLTTLKDEDFCKRVSLATVDKTVETPSPHYHHEHHHNHGHQHLGSSELSENQQPGAPNAPTHPAPPGLHHHHKHKGQHRQGHPENRDMPASEDLQDLQKKLCRKRCINQLLCKLPTDSELAPRSUCCHCRHLIFEKTGSAITUQCKENLPSLCSUQGLRAEENITESCQURLPPAAUQISQQLIPTEASASURUKNQAKKUEUPSN
cell death-inhibitory activity per proteins (Dami cells; full-length protein compared with fragment fraction from Preparation 1): much lower than that of the fragment
degree of paralysis (score, Table 1) (gerbil mice; 30 minutes ischemia model, after 6 and 24 hours): apparently exhibited better conditions
degree of paralysis (score, Table 1) (gerbil mice; 45 minutes ischemia model, after 6 hours): no significant difference
degree of paralysis (score, Table 1) (gerbil mice; 45 minutes ischemia model, after 24 hours): much difference
onset of the disease (EAE mice (SJL/JOrIICrj)): onset of the disease was inhibited
severity of the disease (paralysis score, Table 2) (EAE mice (SJL/JOrIICrj)): severity of the disease was lowered
survival time of hNT cells (hNT cells; 100 ng/ml, basal medium): more than two weeks
cell death of hNT cells (hNT cells; 100 ng/ml, basal medium RPMI 1640/D-MEM/F-12, without addition cells died completely on Day 5 to Day 7): completely inhibited
protrusion formation (cellular morphology) (hNT cells; hNT cells, observed on Day 4, FIG. 3): protrusion formation was observed; also recorded: protrusion was formed
toxicity [2]: no strong toxicity
